Laboratory results as given in paper PMC12416549 (2024).
Where a chain is given by its changes, count along the chain named. Numbers in names are those of the source. Where two headings read alike, the source gives them in different places.

T1: TNFR1 (Homo sapiens, UniProt P19438)
T1 chain: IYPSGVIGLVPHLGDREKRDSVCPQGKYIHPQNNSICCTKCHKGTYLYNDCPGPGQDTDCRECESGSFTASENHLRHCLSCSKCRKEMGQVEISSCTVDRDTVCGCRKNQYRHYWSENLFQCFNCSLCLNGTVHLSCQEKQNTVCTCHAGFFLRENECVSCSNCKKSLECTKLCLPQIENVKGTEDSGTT

B1: D65H (designed binder)
chain: MTLQELLREEALRRAEAEAFRYALELLAEKFPEQKEYLLDLAEEIESQIRSLSGVDVEDVRKFLHKEWAWVKELLAEHPAELAEVEAARAARLAELRAEVEAKVAA
B2: E84I (designed binder)
chain: B1 chain with H65D, E84I
B3: R13F (designed binder)
chain: B1 chain with R13F, H65D
B4: F63L (designed binder)
chain: B1 chain with F63L, H65D
B5: I45E (designed binder)
chain: B1 chain with I45E, H65D
B6: E95F (designed binder)
chain: B1 chain with H65D, E95F
B7: D40H (designed binder)
chain: B1 chain with D40H, H65D
B8: E9D (designed binder)
chain: B1 chain with E9D, H65D
B9: V104G (designed binder)
chain: B1 chain with H65D, V104G
B10: E73C (designed binder)
chain: B1 chain with H65D, E73C
B11: R61I (designed binder)
chain: B1 chain with R61I, H65D
B12: A106W (designed binder)
chain: B1 chain with H65D, A106W
B13: E9K (designed binder)
chain: B1 chain with E9K, H65D
B14: Y37M (designed binder)
chain: B1 chain with Y37M, H65D
B15: E77Q (designed binder)
chain: B1 chain with H65D, E77Q
B16: D59F (designed binder)
chain: B1 chain with D59F, H65D
B17: D65L (designed binder)
chain: B1 chain with H65L
B18: V100A (designed binder)
chain: B1 chain with H65D, V100A
B19: L96E (designed binder)
chain: B1 chain with H65D, L96E
B20: E29P (designed binder)
chain: B1 chain with E29P, H65D
B21: A98H (designed binder)
chain: B1 chain with H65D, A98H
B22: E77K (designed binder)
chain: B1 chain with H65D, E77K
B23: R8S (designed binder)
chain: B1 chain with R8S, H65D
B24: A80Y (designed binder)
chain: B1 chain with H65D, A80Y
B25: A98K (designed binder)
chain: B1 chain with H65D, A98K
B26: K66R (designed binder)
chain: B1 chain with H65D, K66R
B27: K103V (designed binder)
chain: B1 chain with H65D, K103V
B28: R92H (designed binder)
chain: B1 chain with H65D, R92H
B29: E95P (designed binder)
chain: B1 chain with H65D, E95P
B30: A15D (designed binder)
chain: B1 chain with A15D, H65D
B31: A88H (designed binder)
chain: B1 chain with H65D, A88H
B32: L82G (designed binder)
chain: B1 chain with H65D, L82G
B33: E73H (designed binder)
chain: B1 chain with H65D, E73H
B34: V60E (designed binder)
chain: B1 chain with V60E, H65D
B35: D59A (designed binder)
chain: B1 chain with D59A, H65D
B36: W70A (designed binder)
chain: B1 chain with H65D, W70A
B37: L41T (designed binder)
chain: B1 chain with L41T, H65D
B38: L7E (designed binder)
chain: B1 chain with L7E, H65D
B39: P79I (designed binder)
chain: B1 chain with H65D, P79I
B40: Y101I (designed binder)
chain: SMEEEVEKAAKEYEKKKKEAIEKHLEKLKAKDKEAAERFLKELEEAAKEYAKDEAKTMSEEEAKRRAKKYKEKVLLSELSEEEQKEIKEAEEKLVRTILKIVEEAAK
B41: A10Y (designed binder)
chain: B40 chain with A10Y, I101Y
B42: A63E (designed binder)
chain: B40 chain with A63E, I101Y
B43: E60V (designed binder)
chain: B40 chain with E60V, I101Y

What was measured:
[1] = target: T1, TNFR1; test: yeast display SC50
[2] = target: T1, TNFR1; test: yeast display SC50

apparent Kd (screen) [1] [nM] | apparent Kd (screen) [2] [nM] | Binder
0.718 | – | B1
0.869 | – | B2
0.277 | – | B3
2.48 | – | B4
1.05 | – | B5
0.446 | – | B6
7.78 | – | B7
0.79 | – | B8
0.653 | – | B9
0.79 | – | B10
0.539 | – | B11
0.956 | – | B12
1.86 | – | B13
2.25 | – | B14
0.593 | – | B15
12.5 | – | B16
0.956 | – | B17
0.869 | – | B18
0.446 | – | B19
0.718 | – | B20
0.593 | – | B21
0.446 | – | B22

apparent Kd (screen) [1] [nM] | apparent Kd (screen) [2] [nM] | Binder
0.653 | – | B23
0.593 | – | B24
0.446 | – | B25
0.869 | – | B26
0.593 | – | B27
0.869 | – | B28
0.718 | – | B29
0.718 | – | B30
0.49 | – | B31
1.54 | – | B32
0.539 | – | B33
4.39 | – | B34
0.539 | – | B35
22.2 | – | B36
0.539 | – | B37
15.2 | – | B38
0.653 | – | B39
– | 0.869 | B40
– | 13.8 | B41
– | 7.07 | B42
– | 0.446 | B43
